Measured values reported in article doi:10.1101/181321 (bioRxiv, 2017).

T1: C-terminal region of human Importin4 (C-Importin4, residues 668 to 1081) (human, UniProt Q8TEX9 668-1081)
T1 sequence: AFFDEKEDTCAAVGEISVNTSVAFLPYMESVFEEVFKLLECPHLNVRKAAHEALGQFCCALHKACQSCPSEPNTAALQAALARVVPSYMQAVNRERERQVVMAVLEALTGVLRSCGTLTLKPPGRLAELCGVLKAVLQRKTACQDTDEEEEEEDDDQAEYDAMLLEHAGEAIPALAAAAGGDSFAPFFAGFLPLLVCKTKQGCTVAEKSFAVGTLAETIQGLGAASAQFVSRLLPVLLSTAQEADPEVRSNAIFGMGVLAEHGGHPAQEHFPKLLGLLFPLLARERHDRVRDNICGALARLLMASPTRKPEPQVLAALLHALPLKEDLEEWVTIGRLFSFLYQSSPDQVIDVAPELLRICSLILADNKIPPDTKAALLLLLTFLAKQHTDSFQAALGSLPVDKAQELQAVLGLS


Key:
[1] = molecular target: C-terminal biotinylated histone H3 peptide (1 to 35 a.a.) (UniProt P68431); test: SPR
[2] = molecular target: T1, C-terminal region of human Importin4 …; test: SPR

Kd [1] [nM]	binding result [2]	Molecule
1600	–	C-terminal region of human Importin4 (C-Importin4, residues 668 to 1081) (from UniProt Q8TEX9 668-1081) (domain or fragment)
–	binds	ARTKQTARKSTGGKAPRK [histone H3 peptide (1-18 a.a.)]
